# Test results taken from IntAct's records for PubMed 20080707.
# B1: Protein-glutamine gamma-glutamyltransferase 2 (Homo sapiens), P21980 (parent)
# chain: MAEELVLERCDLELETNGRDHHTADLCREKLVVRRGQPFWLTLHFEGRNYEASVDSLTFSVVTGPAPSQEAGTKARFPLRDAVEEGDWTATVVDQQDCTLSLQLTTPANAPIGLYRLSLEASTGYQGSSFVLGHFILLFNAWCPADAVYLDSEEERQEYVLTQQGFIYQGSAKFIKNIPWNFGQFEDGILDICLILLDVNPKFLKNAGRDCSRRSSPVYVGRVVSGMVNCNDDQGVLLGRWDNNYGDGVSPMSWIGSVDILRRWKNHGCQRVKYGQCWVFAAVACTVLRCLGIPTRVVTNYNSAHDQNSNLLIEYFRNEFGEIQGDKSEMIWNFHCWVESWMTRPDLQPGYEGWQALDPTPQEKSEGTYCCGPVPVRAIKEGDLSTKYDAPFVFAEVNADVVDWIQQDDGSVHKSINRSLIVGLKISTKSVGRDEREDITHTYKYPEGSSEEREAFTRANHLNKLAEKEETGMAMRIRVGQSMNMGSDFDVFAHITNNTAEEYVCRLLLCARTVSYNGILGPECGTKYLLNLNLEPFSEKSVPLCILYEKYRDCLTESNLIKVRALLVEPVINSYLLAERDLYLENPEIKIRILGEPKQKRKLVAEVSLQNPLPVALEGCTFTVEGAGLTEEQKTVEIPDPVEAGEEVKVRMDLLPLHMGLHKLVVNFESDKLKAVKGFRNVIIGPA
# Variants of: B1
# Conditions: with KRT19, P08727
# KRT19, P08727, sequence (P08727 whole entry): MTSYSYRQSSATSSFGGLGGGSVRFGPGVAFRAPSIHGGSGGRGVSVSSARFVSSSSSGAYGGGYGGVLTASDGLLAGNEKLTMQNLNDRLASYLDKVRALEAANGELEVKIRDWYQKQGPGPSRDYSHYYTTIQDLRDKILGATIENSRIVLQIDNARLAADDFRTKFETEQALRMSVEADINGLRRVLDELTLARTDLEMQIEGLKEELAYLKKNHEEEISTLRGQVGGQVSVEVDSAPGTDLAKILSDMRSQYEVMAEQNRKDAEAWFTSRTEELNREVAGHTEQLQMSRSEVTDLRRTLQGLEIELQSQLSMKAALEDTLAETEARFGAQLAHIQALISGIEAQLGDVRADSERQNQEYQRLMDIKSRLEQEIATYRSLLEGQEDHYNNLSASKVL
row,effect of a mutation on the interaction,Variant
1,disrupting interaction,C277V
